Measurements from ChEMBL document CHEMBL2074458, “Fluorescence-based assay for the interaction of small molecules with the human renal organic anion transporter 1” (Anal Biochem, 2000).

Substrate: O=C(O)c1ccc(C(=O)O)c(-c2c3ccc(=O)cc-3oc3cc(O)ccc23)c1
Experiment: TP_TRANSPORTER: uptake in OAT1-expressing CHO cells
Type: functional, cell-based

B1: Solute carrier family 22 member 6 (Homo sapiens) (protein)
chain: MAFNDLLQQVGGVGRFQQIQVTLVVLPLLLMASHNTLQNFTAAIPTHHCRPPADANLSKNGGLEVWLPRDRQGQPESCLRFTSPQWGLPFLNGTEANGTGATEPCTDGWIYDNSTFPSTIVTEWDLVCSHRALRQLAQSLYMVGVLLGAMVFGYLADRLGRRKVLILNYLQTAVSGTCAAFAPNFPIYCAFRLLSGMALAGISLNCMTLNVEWMPIHTRACVGTLIGYVYSLGQFLLAGVAYAVPHWRHLQLLVSAPFFAFFIYSWFFIESARWHSSSGRLDLTLRALQRVARINGKREEGAKLSMEVLRASLQKELTMGKGQASAMELLRCPTLRHLFLCLSMLWFATSFAYYGLVMDLQGFGVSIYLIQVIFGAVDLPAKLVGFLVINSLGRRPAQMAALLLAGICILLNGVIPQDQSIVRTSLAVLGKGCLAASFNCIFLYTGELYPTMIRQTGMGMGSTMARVGSIVSPLVSMTAELYPSMPLFIYGAVPVAASAVTVLLPETLGQPLPDTVQDLESRWAPTQKEAGIYPRKGKQTRQQQEHQKYMVPLQASAQEKNGL
  Km: 3.95 µM
